Data from PMC3170560.

Substrate: C=CC1=C(C)C2=Cc3c(C=C)c(C)c4[n]3[Fe]([Cl])[n]3c(c(C)c(CCC(=O)O)c3=CC3=NC(=C4)C(C)=C3CCC(=O)O)=CC1=N2
Experiment: purified protein
Settings: haemin 1-20 μM, NADPH added to start, 0.1 M HEPES-NaOH pH 7.2

B1: mBnHO1 (mature BnHO1, haem oxygenase-1) (Brassica napus) (protein)
chain: ATAAEKQKKKRYPGESKGFVEEMRFVAMRLHTKEQAKEGEKETKAPEERPVAKWEPTVEGYLRFLVDSKLVYDTLEEIIGQSTFPTYAEFKNTGLERAEKLDTDLKWFKEQGYEIPEPTATGKKYSQYLKDLADKDPPSFICHFYNIYFAHSAGGRMIGRKVAERILDNRELEFYKWDGDLSELLQNVREKLNKVAEEWTREEKNHCLVGDRESFKYSGEILRLILS
Question: B1 was tested. Which Km did it give?
Answer: 2.52 µM
